Laboratory results reported in PMC7539298.

Columns and labels:
[1] = target: Asp7 (UniProt position 678, …); assay: potentiometry; conditions: 25 °C, 0.1 M (KNO3), none, 1.0 mM peptide in 4 mM HNO3/96 mM KNO3, under argon
[2] = target: Glu11 (UniProt position 682, …); assay: potentiometry; conditions: 25 °C, 0.1 M (KNO3), none, 1.0 mM peptide in 4 mM HNO3/96 mM KNO3, under argon
[3] = target: Nterm5 (UniProt position 676, …); assay: potentiometry; conditions: 25 °C; 0.1 M (KNO3); none; 1.0 mM peptide in 4 mM HNO3/96 mM KNO3, under argon; apo peptide (no metal)
[4] = target: Tyr10 (UniProt position 681, …); assay: UV-vis; conditions: 25 °C; none stated; titrated with concentrated NaOH; Cu(II)-bound: 0.9 mM Cu(II), 1.0 mM peptide
[5] = target: Tyr10 (UniProt position 681, …); assay: potentiometry; conditions: 25 °C; 0.1 M (KNO3); none; 1.0 mM peptide in 4 mM HNO3/96 mM KNO3, under argon; apo peptide (no metal)
[6] = target: His6 (UniProt position 677, …); assay: potentiometry; conditions: 25 °C; 0.1 M (KNO3); none; 1.0 mM peptide in 4 mM HNO3/96 mM KNO3, under argon; apo peptide (no metal)
[7] = target: Tyr10 (UniProt position 681, …); assay: other (circular dichroism); conditions: 25 °C; none stated; titrated with concentrated NaOH; Cu(II)-bound: 0.9 mM Cu(II), 1.0 mM peptide
[8] = Cu(II)-bound, mononuclear 3N complex (Arg5 N-terminal amine, Arg5-His6 amide N-, His6 imidazole, equatorial H2O), peptide:metal ratios 1:2, 1:1 and 1:0.5

Work on RHDSGYEVHHQK [Amyloid-beta peptide fragment 5-16 (Abeta5-16) (Homo sapiens)] yielded a pKa [1, 8] of 3.212, a pKa ([1]; apo peptide (no metal)) of 2.48 and a pKa [2, 8] of 4.169. The pKa ([2]; apo peptide (no metal)) was 3.92 and the pKa [3] was 7.60.

With RHDSGYEV [Amyloid-beta peptide fragment 5-12 (Abeta5-12) (Homo sapiens)] the pKa [4] was 8.95(7), the pKa [5] was 10.08 and the pKa [1, 8] was 3.23. It also gave a pKa ([1]; apo peptide (no metal)) of 2.73, a pKa [6] of 6.25 and a pKa [2, 8] of 4.69. The pKa ([2]; apo peptide (no metal)) was 4.37, the pKa [3] was 7.52 and the pKa [7] was 8.89(3).

RHDSG [Amyloid-beta peptide fragment 5-9 (Abeta5-9) (Homo sapiens)] gave a pKa [1, 8] of 3.82, a pKa ([1]; apo peptide (no metal)) of 3.17 and a pKa [6] of 6.13. For the same protein, the pKa [3] was 7.37.
